The test system of data set [1] is HeLa Kyoto. Description: melting temperature (median over replicates), in situ; higher = more thermally stable.
The test system of data set [2] is HeLa Kyoto. Description: solubility in G1/S (NP-40 vs SDS abundance) (log2 ratio); higher = more soluble. Particulars: cell cycle stage: G1/S.
Data set [3] concerns HeLa Kyoto. Put plainly: solubility change mitosis vs G1/S (difference of NP-40 vs SDS log2 ratios) (log2 ratio difference); higher = more soluble in mitosis.
Data set [4] concerns HeLa Kyoto. Put plainly: thermal stability score vs G1/S (z-score of summed log2 fold changes over temperatures); higher = more thermally stable than in G1/S.
The mark [5] stands for this setting: cell cycle stage: early G1 (4.5 h after nocodazole release).
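Wherever melting temperature (median over replicates), in situ is given: HeLa Kyoto cells synchronized by double thymidine or nocodazole block, proteins quantified by TMT10plex mass spectrometry, three independent biological replicates.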
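Wherever solubility change mitosis vs G1/S (difference of NP-40 vs SDS log2 ratios) is given: synchronized HeLa Kyoto cells (double thymidine block for G1/S, nocodazole release for mitosis), protein amounts in NP-40 versus SDS lysates quantified by mass spectrometry, three biological replicates.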
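Wherever solubility in G1/S (NP-40 vs SDS abundance) is given: HeLa Kyoto cells arrested at G1/S by double thymidine block, proteins quantified by TMT10plex mass spectrometry in mild NP-40 versus SDS extracts, three biological replicates.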
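Wherever thermal stability score vs G1/S (z-score of summed log2 fold changes over temperatures) is given: synchronized HeLa Kyoto cells, proteins quantified by TMT10plex mass spectrometry, three biological replicates, mitosis taken 0.5 h after nocodazole release, G1/S directly after double thymidine block.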

For the sequence “MADSRDPASDQMQHWKEQRAAQKADVLTTGAGNPVGDKLNVITVGPRGPLLVQDVVFTDEMAHFDRERIPERVVHAKGAGAFGYFEVTHDITKYSKAKVFEHIGKKTPIAVRFSTVAGESGSADTVRDPRGFAVKFYTEDGNWDLVGNNTPIFFIRDPILFPSFIHSQKRNPQTHLKDPDMVWDFWSLRPESLHQVSFLFSDRGIPDGHRHMNGYGSHTFKLVNANGEAVYCKFHYKTDQGIKNLSVEDAARLSQEDPDYGIRDLFNAIATGKYPSWTFYIQVMTFNQAETFPFNPFDLTKVWPHKDYPLIPVGKLVLNRNPVNYFAEVEQIAFDPSNMPPGIEASPDKMLQGRLFAYPDTHRHRLGPNYLHIPVNCPYRARVANYQRDGPMCMQDNQGGAPNYYPNSFGAPEQQPSALEHSIQYSGEVRRFNTANDDNVTQVRAFYVNVLNEEQRKRLCENIAGHLKDAQIFIQKKAVKNFTEVHPDYGSHIQALLDKYNAEKPKNAIHTFVQSGSHLAAREKANL [CAT]”, the values for the melting temperature in data set [1] (cell cycle stage: G1/S) and in data set [1] (cell cycle stage: mitosis) were 58.2 °C and 57.9 °C, respectively. For the same sequence, the “solubility in G1/S (log2)” value in data set [2] worked out at 0.174. In data set [3], the “solubility change mitosis (log2)” value is -0.000938. Further, the thermal stability score was -2.19 in data set [4] (setting [5]) and -2.27 in data set [4] (cell cycle stage: mitosis).

In the case of “MFSRAGVAGLSAWTLQPQWIQVRNMATLKDITRRLKSIKNIQKITKSMKMVAAAKYARAERELKPARIYGLGSLALYEKADIKGPEDKKKHLLIGVSSDRGLCGAIHSSIAKQMKSEVATLTAAGKEVMLVGIGDKIRGILYRTHSDQFLVAFKEVGRKPPTFGDASVIALELLNSGYEFDEGSIIFNKFRSVISYKTEEKPIFSLNTVASADSMSIYDDIDADVLQNYQEYNLANIIYYSLKESTTSEQSARMTAMDNASKNASEMIDKLTLTFNRTRQAVITKELIEIISGAAALD [ATP5C1]”, the melting temperature in data set [1] (cell cycle stage: G1/S) was determined as 58 °C; in data set [1] (cell cycle stage: mitosis) it was 56.5 °C. Besides, the “solubility in G1/S (log2)” value in data set [2] worked out at 0.283. For the same sequence, in data set [3], the “solubility change mitosis (log2)” value is -0.0222. The thermal stability score is -0.727 in data set [4] (setting [5]) and -0.47 in data set [4] (cell cycle stage: mitosis).

For “MGTKAQVERKLLCLFILAILLCSLALGSVTVHSSEPEVRIPENNPVKLSCAYSGFSSPRVEWKFDQGDTTRLVCYNNKITASYEDRVTFLPTGITFKSVTREDTGTYTCMVSEEGGNSYGEVKVKLIVLVPPSKPTVNIPSSATIGNRAVLTCSEQDGSPPSEYTWFKDGIVMPTNPKSTRAFSNSSYVLNPTTGELVFDPLSASDTGEYSCEARNGYGTPMTSNAVRMEAVERNVGVIVAAVLVTLILLGILVFGIWFAYSRGHFDRTKKGTSSKKVIYSQPSARSEGEFKQTSSFLV [F11R]”, the melting temperature in data set [1] (cell cycle stage: G1/S) came to 58.9 °C; in data set [1] (cell cycle stage: mitosis), 59.5 °C. The “solubility in G1/S (log2)” value in data set [2] is 0.284. Besides, the “solubility change mitosis (log2)” value in data set [3] is -0.139. In addition, the thermal stability score in data set [4] (setting [5]) is -2.07; in data set [4] (cell cycle stage: mitosis) it was -2.09.

Regarding “MASASGAMAKHEQILVLDPPTDLKFKGPFTDVVTTNLKLRNPSDRKVCFKVKTTAPRRYCVRPNSGIIDPGSTVTVSVMLQPFDYDPNEKSKHKFMVQTIFAPPNTSDMEAVWKEAKPDELMDSKLRCVFEMPNENDKLNDMEPSKAVPLNASKQDGPMPKPHSVSLNDTETRKLMEECKRLQGEMMKLSEENRHLRDEGLRLRKVAHSDKPGSTSTASFRDNVTSPLPSLLVVIAAIFIGFFLGKFIL [VAPA]”, the melting temperature is 54.1 °C in data set [1] (cell cycle stage: G1/S) and 54.5 °C in data set [1] (cell cycle stage: mitosis). For the same sequence, the “solubility in G1/S (log2)” value in data set [2] worked out at 0.735. For the same sequence, the “solubility change mitosis (log2)” value in data set [3] is 0.0815. The thermal stability score was -1.27 in data set [4] (setting [5]) and -1.24 in data set [4] (cell cycle stage: mitosis).

Take “MRLLPLAPGRLRRGSPRHLPSCSPALLLLVLGGCLGVFGVAAGTRRPNVVLLLTDDQDEVLGGMTPLKKTKALIGEMGMTFSSAYVPSALCCPSRASILTGKYPHNHHVVNNTLEGNCSSKSWQKIQEPNTFPAILRSMCGYQTFFAGKYLNEYGAPDAGGLEHVPLGWSYWYALEKNSKYYNYTLSINGKARKHGENYSVDYLTDVLANVSLDFLDYKSNFEPFFMMIATPAPHSPWTAAPQYQKAFQNVFAPRNKNFNIHGTNKHWLIRQAKTPMTNSSIQFLDNAFRKRWQTLLSVDDLVEKLVKRLEFTGELNNTYIFYTSDNGYHTGQFSLPIDKRQLYEFDIKVPLLVRGPGIKPNQTSKMLVANIDLGPTILDIAGYDLNKTQMDGMSLLPILRGASNLTWRSDVLVEYQGEGRNVTDPTCPSLSPGVSQCFPDCVCEDAYNNTYACVRTMSALWNLQYCEFDDQEVFVEVYNLTADPDQITNIAKTIDPELLGKMNYRLMMLQSCSGPTCRTPGVFDPGYRFDPRLMFSNRGSVRTRRFSKHLL [GNS]”: the values for the melting temperature in data set [1] (cell cycle stage: G1/S) and in data set [1] (cell cycle stage: mitosis) were 57.1 °C and 57.6 °C, respectively. In data set [2], the “solubility in G1/S (log2)” value turned out to be 0.471. Also, the “solubility change mitosis (log2)” value in data set [3] was determined as 0.0867. In addition, the results for the thermal stability score in data set [4] (setting [5]) and in data set [4] (cell cycle stage: mitosis) were -1.62 and -1.58, respectively.

As to “MPFDFRRFDIYRKVPKDLTQPTYTGAIISICCCLFILFLFLSELTGFITTEVVNELYVDDPDKDSGGKIDVSLNISLPNLHCELVGLDIQDEMGRHEVGHIDNSMKIPLNNGAGCRFEGQFSINKVPGNFHVSTHSATAQPQNPDMTHVIHKLSFGDTLQVQNIHGAFNALGGADRLTSNPLASHDYILKIVPTVYEDKSGKQRYSYQYTVANKEYVAYSHTGRIIPAIWFRYDLSPITVKYTERRQPLYRFITTICAIIGGTFTVAGILDSCIFTASEAWKKIQLGKMH [ERGIC1]”, the figures for the melting temperature in data set [1] (cell cycle stage: G1/S) and in data set [1] (cell cycle stage: mitosis) were 55.2 °C and 55.6 °C, respectively. Besides, the “solubility in G1/S (log2)” value in data set [2] stood at 0.18. Further, in data set [3], the “solubility change mitosis (log2)” value is -0.178. Further, the thermal stability score was -0.418 in data set [4] (setting [5]) and -0.585 in data set [4] (cell cycle stage: mitosis).

As to “MENAHTKTVEEVLGHFGVNESTGLSLEQVKKLKERWGSNELPAEEGKTLLELVIEQFEDLLVRILLLAACISFVLAWFEEGEETITAFVEPFVILLILVANAIVGVWQERNAENAIEALKEYEPEMGKVYRQDRKSVQRIKAKDIVPGDIVEIAVGDKVPADIRLTSIKSTTLRVDQSILTGESVSVIKHTDPVPDPRAVNQDKKNMLFSGTNIAAGKAMGVVVATGVNTEIGKIRDEMVATEQERTPLQQKLDEFGEQLSKVISLICIAVWIINIGHFNDPVHGGSWIRGAIYYFKIAVALAVAAIPEGLPAVITTCLALGTRRMAKKNAIVRSLPSVETLGCTSVICSDKTGTLTTNQMSVCRMFILDRVEGDTCSLNEFTITGSTYAPIGEVHKDDKPVNCHQYDGLVELATICALCNDSALDYNEAKGVYEKVGEATETALTCLVEKMNVFDTELKGLSKIERANACNSVIKQLMKKEFTLEFSRDRKSMSVYCTPNKPSRTSMSKMFVKGAPEGVIDRCTHIRVGSTKVPMTSGVKQKIMSVIREWGSGSDTLRCLALATHDNPLRREEMHLEDSANFIKYETNLTFVGCVGMLDPPRIEVASSVKLCRQAGIRVIMITGDNKGTAVAICRRIGIFGQDEDVTSKAFTGREFDELNPSAQRDACLNARCFARVEPSHKSKIVEFLQSFDEITAMTGDGVNDAPALKKAEIGIAMGSGTAVAKTASEMVLADDNFSTIVAAVEEGRAIYNNMKQFIRYLISSNVGEVVCIFLTAALGFPEALIPVQLLWVNLVTDGLPATALGFNPPDLDIMNKPPRNPKEPLISGWLFFRYLAIGCYVGAATVGAAAWWFIAADGGPRVSFYQLSHFLQCKEDNPDFEGVDCAIFESPYPMTMALSVLVTIEMCNALNSLSENQSLLRMPPWENIWLVGSICLSMSLHFLILYVEPLPLIFQITPLNVTQWLMVLKISLPVILMDETLKFVARNYLEPGKECVQPATKSCSFSACTDGISWPFVLLIMPLVIWVYSTDTNFSDMFWS [ATP2A2]”, the melting temperature in data set [1] (cell cycle stage: G1/S) and in data set [1] (cell cycle stage: mitosis) was 51.8 °C throughout. For the same sequence, the “solubility in G1/S (log2)” value in data set [2] was -0.104. For the same sequence, the “solubility change mitosis (log2)” value in data set [3] was -0.116. Besides, the thermal stability score in data set [4] (setting [5]) is 3.11; in data set [4] (cell cycle stage: mitosis), 3.97.

Regarding “MKMADRSGKIIPGQVYIEVEYDYEYEAKDRKIVIKQGERYILVKKTNDDWWQVKPDENSKAFYVPAQYVKEVTRKALMPPVKQVAGLPNNSTKIMQSLHLQRSTENVNKLPELSSFGKPSSSVQGTGLIRDANQNFGPSYNQGQTVNLSLDLTHNNGKFNNDSHSPKVSSQNRTRSFGHFPGPEFLDVEKTSFSQEQSCDSAGEGSERIHQDSESGDELSSSSTEQIRATTPPNQGRPDSPVYANLQELKISQSALPPLPGSPAIQINGEWETHKDSSGRCYYYNRGTQERTWKPPRWTRDASISKGDFQNPGDQELLSSEENYYSTSYSQSDSQCGSPPRGWSEELDERGHTLYTSDYTNEKWLKHVDDQGRQYYYSADGSRSEWELPKYNASSQQQREIIKSRSLDRRLQEPIVLTKWRHSTIVLDTNDKESPTASKPCFPENESSPSSPKHQDTASSPKDQEKYGLLNVTKIAENGKKVRKNWLSSWAVLQGSSLLFTKTQGSSTSWFGSNQSKPEFTVDLKGATIEMASKDKSSKKNVFELKTRQGTELLIQSDNDTVINDWFKVLSSTINNQAVETDEGIEEEIPDSPGIEKHDKEKEQKDPKKLRSFKVSSIDSSEQKKTKKNLKKFLTRRPTLQAVREKGYIKDQVFGSNLANLCQRENGTVPKFVKLCIEHVEEHGLDIDGIYRVSGNLAVIQKLRFAVNHDEKLDLNDSKWEDIHVITGALKMFFRELPEPLFTFNHFNDFVNAIKQEPRQRVAAVKDLIRQLPKPNQDTMQILFRHLRRVIENGEKNRMTYQSIAIVFGPTLLKPEKETGNIAVHTVYQNQIVELILLELSSIFGR [ARHGAP12]”, the melting temperature was 50.7 °C in data set [1] (cell cycle stage: G1/S) and 50.1 °C in data set [1] (cell cycle stage: mitosis). Also, the “solubility in G1/S (log2)” value in data set [2] is -0.0332. Moreover, in data set [3], the “solubility change mitosis (log2)” value is -0.246. Further, the thermal stability score in data set [4] (setting [5]) is -0.591; in data set [4] (cell cycle stage: mitosis), -0.433.

The values are drawn from the supplement of paper PMC5998384.
